B1: Human his-tagged NKG2D/CD314 (Acro Biosystems, NKD-H5245) (receptor, UniProt P26718 78-216, looked up)
chain: FLNSLFNQEVQIPLTESYCGPCPKNWICYKNNCYQFFDESKNWYESQASCMSQNASLLKVYSKEDQDLLKLVKSYHWMGLVHIPTNGSWQWEDGSILSPNLLTIIEMQKGDCALYASSFKGYIENCSTPNTYICMQRTV
notes: Bought recombinant protein with a His tag; also called Human NKG2D-His protein; NKG2D-His

How the values were obtained:
CYTB04 = biological target: T1, CYTB04; test: SPR (Biacore), molecule captured on anti-human IgG Fc chip, antigen as analyte, 1:1 Langmuir fit
T1 construct: Immunocytokine, Format A: anti-NKG2D IgG1 (H5/L5) with sushi-IL-15 at the C-terminus of each heavy chain
Protocol: (§1) In brief, the test molecules were first immobilized on a goat anti-human IgG (Fc specific) antibody plated on a Biacore CM5 Series S sensor chip (CFJB1172, Cytiva Cat No. 29149603) by injection at 5 nM at flow rate 30 ul/min. […] The quality of the fits was assessed by visual inspection.

CYTB29 [1] = biological target: T2, CYTB29; test: as above
T2 construct: Comparator, Format G: three chains, monovalent for NKG2D (H5/L5) and IL-15 receptor beta; wild-type IL-15
Protocol: as §1

CYTB29 [2] = biological target: T2, CYTB29; test: SPR avidity format, antigen immobilised on CM5 chip, test molecule injected as analyte
Text: (§2) In order explore avidity binding effects (rather than affinity), a different assay orientation was employed. Specifically, the recombinant target human antigens (NKG2D-His or IL-15 receptor beta-His antigens, see Example 5) were immobilized on CM5 Series S sensor chips (Cytiva, catalogue number 29149603). […] Irrelevant mAbs were employed to determine and subtract background. As previously (Example 5), standard regeneration solutions and buffers were employed. To determine and compare avidity effects, test molecules were the injected in stepwise serial dilutions and sensogram responses generated.

[3] = biological target: B1; test: SPR (Biacore), molecule captured on anti-human IgG Fc chip, antigen as analyte, 1:1 Langmuir fit
Protocol: as §1

CYTB30 = biological target: T3, CYTB30; test: SPR avidity format, antigen immobilised on CM5 chip, test molecule injected as analyte; avidity format of Table 6 (Example 6); not the capture format of Table 5
T3 construct: Comparator, Format G: three chains, monovalent for both targets; also called CYB30
Text: as §2

Row | Kd (CYTB04) [nM] | Kd (CYTB29 [1]) [nM] | Kd (CYTB29 [2]) [nM] | Kd [3] [nM] | Kd (CYTB30) [nM] | Binder
1 | 6 | 3.52 | 6.4 |  |  | Human IL-15R beta/CD122 Protein, His Tag (Acro Biosystems CD2-H5221) (receptor, UniProt P14784 27-239, looked up, Bought recombinant protein with a His tag; also called Human IL-15Rβ protein; IL-15 receptor beta-His) AVNGTSQFTCFYNSRANISCVWSQDGALQDTSCQVHAWPDRRRWNQTCELLPVSQASWACNLILGAPDSQKLTTVDIVTLRVLCREGVRWRVMAIQDFKPFENLRLMAPISLQVVHVETHRCNISWEISQASHYFERHLEFEARTLSPGHTWEEAPLLTLKQKQEWICLETLTPDTQYEFQVRVKPLQGEFTTWSPWSQPLAFRTKPAALGKD
2 |  |  |  | 1.65 |  | CYTB21 (antibody, human IgG1, kappa, V domains shown, Control, Format E: anti-NKG2D IgG1 (H6/L6) without IL-15 components; also called CYB21; anti-NKG2D IgG1) VH: EVQLVQSGAEVKEPGESLKISCKNSGYSFTNYWVGWVRQMPGKGLEWMGIIYPGDSDTRYSPSFQGQVTISADKSINTAYLQWSSLKASDTAMYYCGRLTMFRGIIIGYFDYWGQGTLVTVSS VL: EIVLTQSPATLSLSPGERATLSCRASQSVSSYLAWYQQKPGQAPRLLIYDASNRATGIPARFSGSGSGTDFTLTISSLEPEDFAVYYCQQRSNWPWTFGQGTKVEIKR
3 | 1.25 | 1.92 | 4.8 |  | 3830 | B1

— US20260232829A1 (CYTOSPIRE THERAPEUTICS, published 2026)
